The text below walks through data of the FLAb antibody collection (doi:10.7554/elife.23156).

The chains are these.
B1: scFv; the commonest letter at each place (parent)
chain 1: EVKLDETGGGLVQPGRPMKLSCVASGFTFSDYWMNWVRQSPEKGLEWVAQIRNKPYNYETYYSDSVKGRFTISRDDSKSSVYLQMNNLRVEDMGIYYCTGSYYGMDYWGQGTSVTVS
chain 2: DVVMTQTPLSLPVSLGDQASISCRSSQSLVHSNGNTYLRWYLQKPGQSPKVLIYKVSNRFSGVPDRFSGSGSGTDFTLKISRVEAEDLGVYFCSQSTHVPWTFGGGTKLEIK

Data set [1] covers variants of B1. Put plainly: Kd (Tite-Seq). The conditions noted are these: with fluorescein; format: scFv 4-4-20, heavy + light.
In data set [2] the parent is B1. Nature of the data set: yeast surface expression (ratio to wild type); higher = more expressed. The conditions noted are these: format: scFv 4-4-20, heavy + light.

As to chain 1 F29T, the Kd in data set [1] was determined as 0.00941 µM. Besides, the yeast surface expression in data set [2] was 0.981.
The corresponding values for chain 1 F29S are 0.0265 µM and 0.933.
For chain 1 F29A M34K V37T, in that order: at least 10 µM and 0.628.
For the variant chain 1 F29R D31K, the Kd in data set [1] is at least 10 µM. For the same variant, in data set [2], the yeast surface expression stood at 0.343.
The corresponding values for chain 1 F29R D31G are at least 10 µM and 0.755.
For chain 1 F29I S30E, in that order: 0.00343 µM and 0.929.
As for chain 1 F29I S30L, in data set [1], the equilibrium dissociation constant (Kd) turned out to be 0.676 µM. Besides, the yeast surface expression in data set [2] amounted to 0.564.
Consider chain 1 F29I V37D, for which, in data set [1], the Kd was at least 10 µM. In addition, the yeast surface expression in data set [2] came to 1.12.
For chain 1 F29S W36Q, in that order: at least 10 µM and 0.549.
As for chain 1 F29N M34A, in data set [1], the dissociation constant Kd is at least 10 µM. The yeast surface expression in data set [2] was determined as 0.918.
Consider chain 1 F29N M34H, for which the Kd in data set [1] turned out to be 1.63 µM. In addition, the yeast surface expression in data set [2] is 0.665.
In the case of chain 1 F29Q S30Q, the Kd in data set [1] was 0.0146 µM. Further, the yeast surface expression in data set [2] was found to be 0.966.
For the variant chain 1 F29Q S30G, the dissociation constant Kd in data set [1] amounted to 0.0391 µM. In addition, in data set [2], the yeast surface expression worked out at 0.863.
The corresponding values for chain 1 F29L S30L are at least 10 µM and 0.651.
The corresponding values for chain 1 F29S S30H are 0.832 µM and 0.945.
As to chain 1 F29P V37K, the dissociation constant Kd in data set [1] was determined as 2.01 µM. Also, the yeast surface expression in data set [2] worked out at 0.288.
For the variant chain 1 F29P V37W, the Kd in data set [1] is at least 10 µM. The yeast surface expression in data set [2] worked out at 0.685.
Regarding chain 1 F29P V37H, the Kd in data set [1] was at least 10 µM. In addition, in data set [2], the yeast surface expression is 0.626.
In the case of chain 1 F29K Y32N, the equilibrium dissociation constant (Kd) in data set [1] is at least 10 µM. For the same variant, the yeast surface expression in data set [2] is 0.609.
The corresponding values for chain 1 F29K Y32G are at least 10 µM and 0.778.
For the variant chain 1 F29A Y32N, in data set [1], the Kd is at least 10 µM. For the same variant, the yeast surface expression in data set [2] came out at 0.832.
The corresponding values for chain 1 F29N N35A are at least 10 µM and 0.862.
Regarding chain 1 F29T M34S, the Kd in data set [1] was at least 10 µM. For the same variant, the yeast surface expression in data set [2] was found to be 0.649.
For the variant chain 1 F29T M34N, the Kd in data set [1] is at least 10 µM. Besides, the yeast surface expression in data set [2] came to 0.548.
The corresponding values for chain 1 F29T M34K are at least 10 µM and 0.35.
For chain 1 F29M S30H Y32S, in that order: at least 10 µM and 0.982.
chain 1 F29E Y32V: the equilibrium dissociation constant (Kd) in data set [1] is at least 10 µM. Besides, the yeast surface expression in data set [2] was 0.811.
The corresponding values for chain 1 F29N W36H are at least 10 µM and 0.279.
For chain 1 F29N W36L, in that order: at least 10 µM and 0.472.
In the case of chain 1 F29L N35T, the dissociation constant (Kd) in data set [1] was at least 10 µM. Besides, in data set [2], the yeast surface expression was determined as 0.76.
The corresponding values for chain 1 F29L N35D are at least 10 µM and 0.64.
The corresponding values for chain 1 F29Q S30C N35I are at least 10 µM and 0.232.
For chain 1 F29H W33R, in that order: at least 10 µM and 0.182.
For chain 1 F29K M34F, the Kd in data set [1] came out at 0.0233 µM. Further, the yeast surface expression in data set [2] was 0.631.
On to chain 1 F29K M34Y, for which, in data set [1], the Kd was 0.00708 µM. Besides, in data set [2], the yeast surface expression was 0.801.
In the case of chain 1 F29C V37M, the Kd in data set [1] amounted to 0.02 µM. Also, in data set [2], the yeast surface expression is 0.763.
The corresponding values for chain 1 F29C V37E are 6.96 µM and 0.973.
For chain 1 F29C S30T N35E, in that order: 9.5 µM and 0.668.
chain 1 F29D V37A: the equilibrium dissociation constant (Kd) in data set [1] is at least 10 µM. In addition, the yeast surface expression in data set [2] is 0.907.
For chain 1 F29D V37D, in that order: at least 10 µM and 0.557.
For chain 1 F29N S30P M34H, the equilibrium dissociation constant (Kd) in data set [1] is at least 10 µM. Besides, the yeast surface expression in data set [2] was determined as 0.781.
For chain 1 F29V N35D, in that order: at least 10 µM and 0.862.
Consider chain 1 F29V N35V, for which the dissociation constant Kd in data set [1] is at least 10 µM. In addition, the yeast surface expression in data set [2] came to 0.239.
As for chain 1 F29P S30Y, the Kd in data set [1] stood at 0.0221 µM. Further, the yeast surface expression in data set [2] amounted to 0.751.
For chain 1 F29P S30Q, in that order: 0.0132 µM and 1.05.
For chain 1 F29R V37N, in that order: at least 10 µM and 0.445.
For chain 1 F29R V37S, the dissociation constant (Kd) in data set [1] was at least 10 µM. In addition, in data set [2], the yeast surface expression stood at 0.385.
On to chain 1 F29R V37P, for which the dissociation constant Kd in data set [1] is at least 10 µM. For the same variant, in data set [2], the yeast surface expression was 0.289.
Regarding chain 1 F29R V37E, the equilibrium dissociation constant (Kd) in data set [1] turned out to be 1.08 µM. Also, the yeast surface expression in data set [2] is 0.545.
The corresponding values for chain 1 F29A V37P are at least 10 µM and 0.153.
For chain 1 F29A V37I, in that order: 0.0851 µM and 0.834.
For chain 1 F29A V37S, in that order: at least 10 µM and 0.545.
In the case of chain 1 F29H W36Q, the equilibrium dissociation constant (Kd) in data set [1] was at least 10 µM. Further, the yeast surface expression in data set [2] worked out at 0.693.
As to chain 1 F29H W36D, the Kd in data set [1] was at least 10 µM. In addition, the yeast surface expression in data set [2] was determined as 0.486.
Turning to chain 1 F29H W36C, the Kd in data set [1] is at least 10 µM. Further, the yeast surface expression in data set [2] stood at 0.281.
For chain 1 F29P Y32A, in that order: 2.47 µM and 1.12.
With chain 1 F29P Y32P, the Kd in data set [1] is at least 10 µM. Besides, the yeast surface expression in data set [2] stood at 0.856.
For chain 1 F29I D31K, in that order: 0.00493 µM and 0.958.

One may read the Kd as the constant that tells how readily two partners part at equilibrium.
